For the data set, the system named is T1, AcrR (His6-AcrR) (Acinetobacter nosocomialis ATCC 17903 (NCTC 8102)?), ORF:b0b0015b.
T1 sequence: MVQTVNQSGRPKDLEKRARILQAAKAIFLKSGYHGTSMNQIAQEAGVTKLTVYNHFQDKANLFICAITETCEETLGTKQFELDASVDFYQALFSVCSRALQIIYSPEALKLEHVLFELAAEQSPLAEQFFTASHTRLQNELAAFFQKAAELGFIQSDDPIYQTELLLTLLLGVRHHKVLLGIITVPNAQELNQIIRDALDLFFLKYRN
The experiment in a line: EMSA.

Drawing on publication PMC6090078, this text covers binding for one sequence.

“AAAACCCTCTAATAAAAGATTAAAAAAATAAATATTTATAAGTTTTTTTTAATTAATGTACCCATGGGTATATTAATTAAAAAACAAACAAACTATGATGCAAGCATATTGTGCCTTAAAAAATCAGTTTGAATAAGAGCGATAAGAT (double strand) [PacrA/acrR promoter fragment, 148 bp]”: the binding result is on record as “binds”.
